Data taken from publication PMC6780846, “Identification and Characterization of a Novel Protein ASP-3 Purified from Arca subcrenata and Its Antitumor Mechanism” (Marine Drugs, 2019).

Molecular target: T1, vascular endothelial growth factor receptor 2 (UniProt P35968 20-764)
T1 construct: VEGFR2 (vascular endothelial growth factor receptor 2); probably a bought recombinant protein (surmise); also called VEGFR2; VEGFR-2
Assay: SPR; Biacore S200; ASP-3 immobilised on a CM5 chip (NHS/EDC activation); VEGFR2 at 100, 50, 25, 12.5, 6.25 and 3.125 nM flowed over for 180 s at 10 μL/min; running buffer HBS-EP+; reference channel subtracted
Details: both partners purified

T1 sequence (P35968 20-764): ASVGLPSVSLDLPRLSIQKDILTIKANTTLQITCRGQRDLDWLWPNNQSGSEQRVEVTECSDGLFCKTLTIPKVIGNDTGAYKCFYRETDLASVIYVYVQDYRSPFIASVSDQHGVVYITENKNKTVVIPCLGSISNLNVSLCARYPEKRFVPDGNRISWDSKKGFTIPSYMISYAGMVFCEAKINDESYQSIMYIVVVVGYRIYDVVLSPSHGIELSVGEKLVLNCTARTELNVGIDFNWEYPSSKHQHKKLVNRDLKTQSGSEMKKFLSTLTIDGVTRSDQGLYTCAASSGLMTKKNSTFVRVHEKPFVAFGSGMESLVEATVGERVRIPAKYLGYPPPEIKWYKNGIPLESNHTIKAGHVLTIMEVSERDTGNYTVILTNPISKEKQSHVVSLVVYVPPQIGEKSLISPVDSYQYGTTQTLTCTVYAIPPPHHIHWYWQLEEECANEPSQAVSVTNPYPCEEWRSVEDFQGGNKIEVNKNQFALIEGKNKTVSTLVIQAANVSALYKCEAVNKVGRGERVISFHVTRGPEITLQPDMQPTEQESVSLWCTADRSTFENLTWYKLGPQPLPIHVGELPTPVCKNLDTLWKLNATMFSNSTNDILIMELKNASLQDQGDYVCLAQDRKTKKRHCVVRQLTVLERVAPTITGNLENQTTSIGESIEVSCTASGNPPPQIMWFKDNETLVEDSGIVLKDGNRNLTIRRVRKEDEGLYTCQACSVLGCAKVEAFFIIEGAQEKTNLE

B1: ASP-3 (natural protein, Arca subcrenata)
chain: MDYLTSKWKLWFHSLDVNHDGKISFEDVEESRNKFTDLHKLLGDKASGVKVDMESWWNTYIFKASGGGELSEEMFIKSNTDRYNKDKAAFLNDIQKCFNMIFDVIDTNKDRSIELNEFIYAFKAFGHENEGLVTKAFELLEPKEGLVPLRDIVNAWVSFVTSTDQSKPDAIKQAFDAGF
notes: ASP-3, Arca subcrenata Lischke, 179 amino acids, 20.6 kDa; Native protein isolated from the animal; also called Arca subcrenata protein; cds.c115914_g1_i1
Kd: 39.9 nM
